Measurements as given in patent US20250145708A1 (GOOD T CELLS, published 2025).

Key:
Assay in all cases: Lrig-1 peptide microarray (15-mers, 14 aa overlap), H6 at 1, 10 and 100 µg/ml
[1] = target: T1, Lrig-1 epitope peptide SEQ ID NO: 19
T1 peptide: TEVRNTCFPHGPPI
Method: (§1) Pre-staining of a Lrig-1 peptide microarray copy using secondary and control antibodies in incubation buffer was performed to identify whether they can interact with antigen-derived peptides that can interfere with the main assays. Subsequent incubation of other Lrig-1 peptide microarray copies with the H6 monoclonal antibody of Production Example 8 (1 μg/ml, 10 μg/ml, and 100 μg/ml) in incubation buffer was followed by staining with secondary and control antibodies. Read-out was performed at a scanning intensity of 7/7 (red/green) using the LI-COR Odyssey Imaging System. Quantification of spot intensities and peptide annotation were based on the 16-bit gray scale tiff files. Microarray image analysis was done with PepSlide® Analyzer.

[2] = target: T2, Lrig-1 epitope peptide SEQ ID NO: 21
T2 peptide: DLNRNRIRLIEGLTF
Method: as §1

[3] = target: T3, Lrig-1 epitope peptide SEQ ID NO: 27
T3 peptide: RRMHVMPDDDVFF
Method: as §1

[4] = target: T4, Lrig-1 epitope peptide SEQ ID NO: 20
T4 peptide: RLTQLDLNRNRIR
Method: as §1

[5] = target: T5, Lrig-1 epitope peptide SEQ ID NO: 22
T5 peptide: NSIARIHRKGW
Method: as §1

[6] = target: T6, Lrig-1 epitope peptide SEQ ID NO: 28
T6 peptide: FFITDVKIDDAGVYS
Method: as §1

[7] = target: T7, Lrig-1 epitope peptide SEQ ID NO: 26
T7 peptide: RLTVNVLPSFTKTPH
Method: as §1

[8] = target: T8, Lrig-1 epitope peptide SEQ ID NO: 18
T8 construct: it was not itself a separately tested peptide
T8 peptide: WTRSLNLSYNKL
Method: as §1

[9] = target: T9, Lrig-1 epitope peptide SEQ ID NO: 25
T9 peptide: FGHEGRYQCVITNHF
Method: as §1

[10] = target: T10, Lrig-1 epitope peptide SEQ ID NO: 23
T10 peptide: WLPPWLIGRMLQAF
Method: as §1

[11] = target: T11, Lrig-1 epitope peptide SEQ ID NO: 24
T11 peptide: RQVTFGHEGRY
Method: as §1

Measured: binding result

B1: H6 clone monoclonal antibody (Production Example 8) (antibody, mouse IgG2a, V domains shown)
VH: EVQLLESGGGLVQPGGSLRLSCAASGFTFSNYAMSWVRQAPGKGLEWVSVISHGGGSTYYADSVKGRFTISRDNSKNTLYLQMNSLRAEDTAVYYCARVISNCHLGVCYYSNGMDVWGQGTLVTVSS
VL: QSVLTQPPSASGTPGQRVTISCSGSSSNIGNNDVYWYQQLPGTAPKLLIYSDSQRPSGVPDRFSGSKSGTSASLAISGLRSEDEADYYCGTWDYSLSGYVFGGGTKLTVLR
notes: also called H6 monoclonal antibody
binds: all assays above
